Experiments:
COS-7 cells [1] = test: Brefeldin A treatment of COS-7 cells transfected with CD39-L4-6His, secretion; type: cell-based; settings: transfected COS-7 cells, 8 hours, increasing dosages
COS-7 cells [2] = test: Brefeldin A treatment of COS-7 cells transfected with CD39-L2, secretion; type: cell-based; settings: transfected COS-7 cells, 8 hours, varying dosages
[3] = Kinetic characteristics of CD39L4 ADP hydrolysis; type: biochemical
[4] = ADPase activity of CD39-L4 from transfected COS-7 cells, stimulation by divalent cations; type: biochemical; settings: 1 mM ADP
[5] = Assay for ATPase activity, [33P]Pi released from [γ33P]ATP; type: biochemical; settings: transfected COS-7 cells, 10 μCi [γ33P]ATP, one hour, 37° C.
[6] = ADPase and ATPase activity of CD39L4 wild type and ACR mutants, inorganic phosphate released; type: biochemical
[7] = membrane bound or engineered soluble form; cited from earlier work
[8] = ADPase activity of CD39-L4 forms (insect-expressed, dimer, deglycosylated); type: biochemical

C[C@H]1CCC/C=C/[C@@H]2C[C@H](O)C[C@H]2[C@H](O)/C=C/C(=O)O1 [brefeldin A]
effect on secretion of CD39-L4-6His (COS-7 cells [1]): blocked secretion of CD39-L4-6His
effect on recombinant CD39-L2 in the media (COS-7 cells [2]): decreased in a brefeldin A dose dependent manner

B1: CD39-L4: novel human CD39-like protein, 428 amino acids, amino acid sequence SEQ ID NO: 3; soluble apyrase specific for NDPs (protein)
chain: MATSWGTVFFMLVVSCVCSAVSHRNQQTWFEGIFLSSMCPINVSASTLYGIMFDAGSTGTRIHVYTFVQKMPGQLPILEGEVFDSVKPGLSAFVDQPKQGAETVQGLLEVAKDSIPRSHWKKTPVVLKATAGLRLLPEHKAKALLFEVKEIFRKSPFLVPKGSVSIMDGSDEGILAWVTVNFLTGQLHGHRQETVGTLDLGGASTQITFLPQFEKTLEQTPRGYLTSFEMFNSTYKLYTHSYLGFGLKAARLATLGALETEGTDGHTFRSACLPRWLEAEWIFGGVKYQYGGNQEGEVGFEPCYAEVLRVVRGKLHQPEEVQRGSFYAFSYYYDRAVDTDMIDYEKGGILKVEDFERKAREVCDNLENFTSGSPFLCMDLSYITALLKDGFGFADSTVLQLTKKVNNIETGWALGATFHLLQSLGISH
cooperativity of ADPase activity, in words [3]: does not appear to possess cooperativity
Vmax of ADP hydrolysis ([3]; 15 mM CaCl2, ADP 0.75-18 mM, 37° C., 15 min, 60 ng protein per reaction, Michaelis-Menten fit): 1191 pmol/min
Km ([3]; 15 mM CaCl2, ADP 0.75-18 mM, 37° C., 15 min, Michaelis-Menten fit): 12.7 mM
turnover number, kcat, ADP as substrate ([3]; assuming 60 ng protein and 46000 g/mol): 15.2 s⁻¹
fold increase in ADPase activity over cells transfected with vector alone ([4]; CD39-L4-6His from COS-7 medium on Nickel-NTA resin, 37° C., 30 min, no added cation): 2.3 fold
fold increase in ADPase activity when Ca2+ added ([4]; Ca2+ added): 3.6 fold
fold increase in ADPase activity when Mg2+ added ([4]; Mg2+ added): 6 fold
increase in ATPase activity over cells transfected with vector alone [5]: at least a four fold increase in activity
hydrolysis of ADP, in words ([6]; ADP as substrate): hydrolyze ADP
hydrolysis of ATP, in words ([6]; ATP as substrate): neither the CD39L4 nor the CD39L4 mutant, ACR III, catalyzed hydrolysis

B2: CD39: 510-amino acid cell-surface ecto-apyrase (ATPDase) (protein, UniProt P49961 1-510, looked up)
Ectonucleoside triphosphate …: MEDTKESNVKTFCSKNILAILGFSSIIAVIALLAVGLTQNKALPENVKYGIVLDAGSSHTSLYIYKWPAEKENDTGVVHQVEECRVKGPGISKFVQKVNEIGIYLTDCMERAREVIPRSQHQETPVYLGATAGMRLLRMESEELADRVLDVVERSLSNYPFDFQGARIITGQEEGAYGWITINYLLGKFSQKTRWFSIVPYETNNQETFGALDLGGASTQVTFVPQNQTIESPDNALQFRLYGKDYNVYTHSFLCYGKDQALWQKLAKDIQVASNEILRDPCFHPGYKKVVNVSDLYKTPCTKRFEMTLPFQQFEIQGIGNYQQCHQSILELFNTSYCPYSQCAFNGIFLPPLQGDFGAFSAFYFVMKFLNLTSEKVSQEKVTEMMKKFCAQPWEEIKTSYAGVKEKYLSEYCFSGTYILSLLLQGYHFTADSWEHIHFIGKIQGSDAGWTLGYMLNLTNMIPAEQPLSTPLSHSTYVFLMVLFSLVLFTVAIIGLLIFHKPSYFWKDMV
hydrolysis of ATP and ADP, in words [7]: able to hydrolyze both ATP and ADP substrates efficiently

B3: CD39-L66: isoform (splice variant) of CD39-L4, amino acid sequence SEQ ID NO: 25 (protein)
chain: MATSWGTVFFMLVVSCVCSAVSHRNQQTWFEGIFLSSMCPINVSASTLYGIMFDAGSTGTRIHVYTFVQKMPGQLPILEGEVFDSVKPGLSAFVDQPKQGAETVQGLLEVAKDSIPRSHWKKTPVVLKATAGLRLLPEHKAKALLFEVKEIFRKSPFLVPKGSVSIMDGSDEGILAWVTVNFLTGQLHGHRQETVGTLDLGGASTQITFLPQFEKTLEQTPRGYLTSFEMFNSTYKLYTHSYLGFGLKAARLATLGALETEGTDGHTFRSACLPRWLEAEWIFGGVKYQYGGNQEGEVGFEPCYAEVLRVVRGKLHQPEEVQRGSFYAFSYYYDRAVDTDMIDYEKGGILKVEDFERKAREVCDNLENFTSGSPFLCMDLSYITALLKDGFGFADSTVLQAAVLR
increase in ATPase activity over cells transfected with vector alone [5]: at least a four fold increase in activity

B4: CD39L4 dimer: dimeric form of secreted CD39L4 (protein, UniProt O75356 25-428, looked up)
Nucleoside diphosphate …: NQQTWFEGIFLSSMCPINVSASTLYGIMFDAGSTGTRIHVYTFVQKMPGQLPILEGEVFDSVKPGLSAFVDQPKQGAETVQGLLEVAKDSIPRSHWKKTPVVLKATAGLRLLPEHKAKALLFEVKEIFRKSPFLVPKGSVSIMDGSDEGILAWVTVNFLTGQLHGHRQETVGTLDLGGASTQITFLPQFEKTLEQTPRGYLTSFEMFNSTYKLYTHSYLGFGLKAARLATLGALETEGTDGHTFRSACLPRWLEAEWIFGGVKYQYGGNQEGEVGFEPCYAEVLRVVRGKLHQPEEVQRGSFYAFSYYYDRAVDTDMIDYEKGGILKVEDFERKAREVCDNLENFTSGSPFLCMDLSYITALLKDGFGFADSTVLQLTKKVNNIETGWALGATFHLLQSLGISH
modifications: dimer
enzymatic (ADPase) activity of the dimer ([8]; monomer and dimer enriched sucrose density gradient fractions): does not possess any significant level of enzymatic activity

B5: deglycosylated CD39-L4: CD39-L4 from tunicamycin treated COS-7 cells (protein, UniProt O75356 25-428, looked up)
Nucleoside diphosphate …: NQQTWFEGIFLSSMCPINVSASTLYGIMFDAGSTGTRIHVYTFVQKMPGQLPILEGEVFDSVKPGLSAFVDQPKQGAETVQGLLEVAKDSIPRSHWKKTPVVLKATAGLRLLPEHKAKALLFEVKEIFRKSPFLVPKGSVSIMDGSDEGILAWVTVNFLTGQLHGHRQETVGTLDLGGASTQITFLPQFEKTLEQTPRGYLTSFEMFNSTYKLYTHSYLGFGLKAARLATLGALETEGTDGHTFRSACLPRWLEAEWIFGGVKYQYGGNQEGEVGFEPCYAEVLRVVRGKLHQPEEVQRGSFYAFSYYYDRAVDTDMIDYEKGGILKVEDFERKAREVCDNLENFTSGSPFLCMDLSYITALLKDGFGFADSTVLQLTKKVNNIETGWALGATFHLLQSLGISH
modifications: deglycosylated (tunicamycin)
notes: CD39-L4 from tunicamycin treated COS-7 cells
ADPase activity of deglycosylated protein ([8]; from tunicamycin (5 μg/ml) treated COS-7 cells): comparable to an equal amount of the glycosylated protein
